From publication PMC11509546, “The Antioxidant Effects of Trypsin-Hydrolysate Derived from Abalone Viscera and Fishery By-Products, and the Angiotensin-I Converting Enzyme (ACE) Inhibitory Activity of Its Purified Bioactive Peptides” (Marine Drugs, 2024) come the findings set out here.

Where a SMILES comes first, the peptide text is derived from it. Where only a bound is given, the exact number is not on record here.

T1 sequence (P12821 30-1306, species assumed): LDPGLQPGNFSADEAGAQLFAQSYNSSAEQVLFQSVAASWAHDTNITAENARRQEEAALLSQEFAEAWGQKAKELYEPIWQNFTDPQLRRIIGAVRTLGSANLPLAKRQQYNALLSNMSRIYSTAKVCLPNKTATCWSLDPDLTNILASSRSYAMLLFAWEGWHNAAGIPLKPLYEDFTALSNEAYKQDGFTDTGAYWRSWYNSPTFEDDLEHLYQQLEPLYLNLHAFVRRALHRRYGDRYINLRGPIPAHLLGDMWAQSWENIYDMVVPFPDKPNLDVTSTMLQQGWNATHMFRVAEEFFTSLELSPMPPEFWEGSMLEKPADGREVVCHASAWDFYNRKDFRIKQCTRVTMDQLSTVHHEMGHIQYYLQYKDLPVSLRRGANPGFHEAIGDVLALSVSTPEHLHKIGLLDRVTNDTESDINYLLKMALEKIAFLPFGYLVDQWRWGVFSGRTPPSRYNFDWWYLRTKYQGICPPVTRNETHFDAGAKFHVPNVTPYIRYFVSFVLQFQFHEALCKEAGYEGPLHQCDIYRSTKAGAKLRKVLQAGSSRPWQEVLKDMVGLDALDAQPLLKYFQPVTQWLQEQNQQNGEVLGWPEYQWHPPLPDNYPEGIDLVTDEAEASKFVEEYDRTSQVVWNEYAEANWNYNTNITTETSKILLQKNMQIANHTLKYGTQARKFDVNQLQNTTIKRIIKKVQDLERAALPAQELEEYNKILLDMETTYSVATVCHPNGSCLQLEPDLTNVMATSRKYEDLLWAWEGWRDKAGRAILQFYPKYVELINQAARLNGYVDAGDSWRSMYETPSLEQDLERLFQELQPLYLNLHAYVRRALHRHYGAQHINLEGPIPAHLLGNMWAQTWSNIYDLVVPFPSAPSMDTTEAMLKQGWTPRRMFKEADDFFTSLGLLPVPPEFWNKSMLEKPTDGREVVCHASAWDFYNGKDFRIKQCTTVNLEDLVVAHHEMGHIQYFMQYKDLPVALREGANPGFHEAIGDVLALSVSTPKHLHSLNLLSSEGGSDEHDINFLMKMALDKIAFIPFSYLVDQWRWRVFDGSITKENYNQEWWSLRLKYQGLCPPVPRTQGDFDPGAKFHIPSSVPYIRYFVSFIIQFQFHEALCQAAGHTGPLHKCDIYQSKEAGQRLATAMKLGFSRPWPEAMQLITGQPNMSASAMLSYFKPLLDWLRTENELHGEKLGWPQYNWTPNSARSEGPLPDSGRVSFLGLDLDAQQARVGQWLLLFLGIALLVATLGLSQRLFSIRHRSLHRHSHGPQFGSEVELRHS

One experiment addresses T1, Angiotensin-I converting enzyme (ACE) (Homo sapiens, UniProt P12821).
T1 construct: purchased Dojindo Inc., Kumamoto, Japan ACE kit-WST
Nature of the experiment: ACE inhibition activity assay (ACE kit-WST, colorimetric). Type of experiment: biochemical. As to conditions: 3-hydroxybutyryl-Gly-Gly-Gly substrate, mean ± SD of triplicate, read-out: ACE Inhibitory Activity IC50 Value (converted). The procedure: ACE inhibitory activity was determined as previously described. Inhibition was measured using an ACE kit-WST (Dojindo Inc., Kumamoto, Japan), a colorimetric method. Briefly, the inhibitory effect was determined using enzyme activity and the amount of 3-hydroxybutyric acid made from 3-hydroxybutyryl-Gly-Gly-Gly.
As for `CC(C)C[C@H](N)C(=O)N[C@@H](CC(=O)O)C(=O)N[C@@H](Cc1c[nH]c2ccccc12)C(=O)O` [LDW] (H-Leu-Asp-Trp-OH), the IC50 was above 2310 µM.

Regarding `CC(C)C[C@H](N)C(=O)NCC(=O)N[C@@H](CCC(=O)O)C(=O)N[C@@H](Cc1c[nH]c2ccccc12)C(=O)O` [LGEW] (H-LGEW-OH), the concentration for half-maximal inhibition (IC50) is 328 µM.

As to `CC(C)C[C@H](N)C(=O)NCC(=O)N1CCC[C@H]1C(=O)N[C@@H](Cc1ccc(O)cc1)C(=O)O` [LGPY] (H-LGPY-OH), the IC50 is above 2230 µM.

In the case of `CC(C)C[C@H](NC(=O)[C@@H](N)CC(N)=O)C(=O)NCC(=O)N[C@@H](CCC(=O)O)C(=O)N[C@@H](Cc1c[nH]c2ccccc12)C(=O)O` [NLGEW] (H-NLGEW-OH), the IC50 is 236 µM.

In the case of `N=C(N)NCCC[C@H](NC(=O)[C@H](CCC(=O)O)NC(=O)[C@H](Cc1ccc(O)cc1)NC(=O)[C@@H](N)CC(N)=O)C(=O)O` [NYER] (H-NYER-OH), the IC50 is 184 µM.

As for `CC(C)C[C@H](NC(=O)[C@@H](N)CCC(N)=O)C(=O)N[C@@H](CCC(N)=O)C(=O)N[C@@H](Cc1ccccc1)C(=O)N1CCC[C@H]1C(=O)N[C@H](C(=O)NCC(=O)N[C@@H](CCCNC(=N)N)C(=O)O)C(C)C` [QLQFPVGR] (H-QLQFPVGR-OH), the IC50 was 4.24 µM.

On to `CC(C)[C@H](N)C(=O)N[C@@H](C)C(=O)N[C@@H](CCCNC(=N)N)C(=O)O` [VAR] (H-Val-Ala-Arg-OH), for which the half-maximal inhibitory concentration (IC50) is 302 µM.

For `CC(C)C[C@H](NC(=O)CNC(=O)[C@@H]1CCCN1C(=O)[C@@H](NC(=O)[C@@H](N)C(C)C)[C@@H](C)O)C(=O)N[C@@H](CCC(N)=O)C(=O)N[C@@H](Cc1ccc(O)cc1)C(=O)O` [VTPGLQY] (H-VTPGLQY-OH), the IC50 was 29.6 µM.

A further experiment deals with Angiotensin-I converting enzyme (UniProt P12821).
Sequence of Angiotensin-I converting enzyme (P12821 30-1256): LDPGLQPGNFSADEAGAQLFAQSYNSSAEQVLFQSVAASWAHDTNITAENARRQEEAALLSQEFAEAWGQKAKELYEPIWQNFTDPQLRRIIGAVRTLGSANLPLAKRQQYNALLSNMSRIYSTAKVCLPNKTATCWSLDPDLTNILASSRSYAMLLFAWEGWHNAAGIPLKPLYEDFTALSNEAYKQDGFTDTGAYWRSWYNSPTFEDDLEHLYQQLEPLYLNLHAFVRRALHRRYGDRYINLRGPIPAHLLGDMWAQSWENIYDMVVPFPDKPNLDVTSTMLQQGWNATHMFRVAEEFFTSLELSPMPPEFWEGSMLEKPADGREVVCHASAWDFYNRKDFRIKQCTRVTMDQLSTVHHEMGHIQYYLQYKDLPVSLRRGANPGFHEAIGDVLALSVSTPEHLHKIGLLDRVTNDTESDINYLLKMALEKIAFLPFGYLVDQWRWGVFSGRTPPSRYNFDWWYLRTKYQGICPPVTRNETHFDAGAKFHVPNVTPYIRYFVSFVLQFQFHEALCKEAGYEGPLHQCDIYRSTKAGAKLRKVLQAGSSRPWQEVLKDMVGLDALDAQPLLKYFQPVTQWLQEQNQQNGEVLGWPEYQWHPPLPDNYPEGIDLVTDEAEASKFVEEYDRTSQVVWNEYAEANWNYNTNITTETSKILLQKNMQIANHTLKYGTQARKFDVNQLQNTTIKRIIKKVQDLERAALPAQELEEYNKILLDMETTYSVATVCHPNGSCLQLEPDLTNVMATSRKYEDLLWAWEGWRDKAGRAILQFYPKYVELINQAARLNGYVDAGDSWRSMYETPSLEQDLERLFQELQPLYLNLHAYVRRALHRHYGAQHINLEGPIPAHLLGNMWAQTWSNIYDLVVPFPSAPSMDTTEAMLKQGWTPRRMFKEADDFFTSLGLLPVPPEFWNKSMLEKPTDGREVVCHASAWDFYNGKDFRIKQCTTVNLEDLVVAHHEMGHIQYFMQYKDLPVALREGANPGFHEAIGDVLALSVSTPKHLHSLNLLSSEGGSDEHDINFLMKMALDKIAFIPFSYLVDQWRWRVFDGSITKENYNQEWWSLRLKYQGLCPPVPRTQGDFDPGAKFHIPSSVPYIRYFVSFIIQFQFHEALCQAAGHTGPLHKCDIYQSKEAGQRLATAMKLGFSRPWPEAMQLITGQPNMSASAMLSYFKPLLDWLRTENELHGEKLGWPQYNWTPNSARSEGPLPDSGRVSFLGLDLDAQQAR
Experiment: not given
Settings: not given
For the molecule LDW (peptide), the ACE inhibitory activity IC50 (ACE kit-WST, colorimetric enzyme activity assay) is above 1000 µg/mL.

Molecule VAR (peptide) showed an ACE inhibitory activity IC50 (ACE kit-WST, colorimetric enzyme activity assay) of 104 µg/mL.

With QFPVGR, the ACE inhibitory activity IC50 (ACE kit-WST, colorimetric enzyme activity assay) turned out to be 23 µg/mL.

For the molecule NLGEW, the ACE inhibitory activity IC50 (ACE kit-WST, colorimetric enzyme activity assay) was 146 µg/mL.

The molecule VTPGLQY came in with an ACE inhibitory activity IC50 (ACE kit-WST, colorimetric enzyme activity assay) of 23 µg/mL.

For the molecule QLQFPVGR, the ACE inhibitory activity IC50 (ACE kit-WST, colorimetric enzyme activity assay) is 4 µg/mL.

LGPY showed an ACE inhibitory activity IC50 (ACE kit-WST, colorimetric enzyme activity assay) above 1000 µg/mL.

NYER displayed an ACE inhibitory activity IC50 (ACE kit-WST, colorimetric enzyme activity assay) of 107 µg/mL.

As for LGEW, the ACE inhibitory activity IC50 (ACE kit-WST, colorimetric enzyme activity assay) turned out to be 165 µg/mL.

As a reminder, the IC50 is the midpoint of a concentration-inhibition curve.
